Experimental data as given in US20240254203A1.

B1: αNTD:7D10/VM (scFv)
scFv: DIVMTQSPASLTVSLGQRATISCRASKSVSASGYNYLHWYQQRPGQPPKLLIYLAFNLESGVPARFNGSGSGTDFTLNIHPVEEEDAATYYCQHSRDLPFTFGSGTKLEIKGGGSGGGSGGGSEVQLVESGAEVVKPGASVKMSCKASGYPFTSYNIHWIKQTPGQGLEWIGAIYPGNGDTSYTQKFKVKATLTSDKSSSTAYMQLSSLTSEDSAVYFCARYGNYPSYAMDYWGQGTSVTVSSSRGMLDSDLHLSSKAQVFEHPHIQDAASQLPDDESLFFGDTGLSKNPIELVEGWFSSWKSSIASFFFIIGLIIGLFLVLRVGIHLCIKLKHTKKRQIYTDIEMNRLGK
B2: soluble 7D10 (antibody, V domains shown)
VH: EVQLVESGAEVVKPGASVKMSCKASGYPFTSYNIHWIKQTPGQGLEWIGAIYPGNGDTSYTQKFKVKATLTSDKSSSTAYMQLSSLTSEDSAVYFCARYGNYPSYAMDYWGQGTSVTVSS
VL: DIVMTQSPASLTVSLGQRATISCRASKSVSASGYNYLHWYQQRPGQPPKLLIYLAFNLESGVPARFNGSGSGTDFTLNIHPVEEEDAATYYCQHSRDLPFTFGSGTKLEIK

Molecular target: MERS CoV spike protein (MERS CoV) (UniProt K9N5Q8)
Assay: cell-based or functional assay

MERS CoV spike protein (MERS CoV), sequence (K9N5Q8 18-1353): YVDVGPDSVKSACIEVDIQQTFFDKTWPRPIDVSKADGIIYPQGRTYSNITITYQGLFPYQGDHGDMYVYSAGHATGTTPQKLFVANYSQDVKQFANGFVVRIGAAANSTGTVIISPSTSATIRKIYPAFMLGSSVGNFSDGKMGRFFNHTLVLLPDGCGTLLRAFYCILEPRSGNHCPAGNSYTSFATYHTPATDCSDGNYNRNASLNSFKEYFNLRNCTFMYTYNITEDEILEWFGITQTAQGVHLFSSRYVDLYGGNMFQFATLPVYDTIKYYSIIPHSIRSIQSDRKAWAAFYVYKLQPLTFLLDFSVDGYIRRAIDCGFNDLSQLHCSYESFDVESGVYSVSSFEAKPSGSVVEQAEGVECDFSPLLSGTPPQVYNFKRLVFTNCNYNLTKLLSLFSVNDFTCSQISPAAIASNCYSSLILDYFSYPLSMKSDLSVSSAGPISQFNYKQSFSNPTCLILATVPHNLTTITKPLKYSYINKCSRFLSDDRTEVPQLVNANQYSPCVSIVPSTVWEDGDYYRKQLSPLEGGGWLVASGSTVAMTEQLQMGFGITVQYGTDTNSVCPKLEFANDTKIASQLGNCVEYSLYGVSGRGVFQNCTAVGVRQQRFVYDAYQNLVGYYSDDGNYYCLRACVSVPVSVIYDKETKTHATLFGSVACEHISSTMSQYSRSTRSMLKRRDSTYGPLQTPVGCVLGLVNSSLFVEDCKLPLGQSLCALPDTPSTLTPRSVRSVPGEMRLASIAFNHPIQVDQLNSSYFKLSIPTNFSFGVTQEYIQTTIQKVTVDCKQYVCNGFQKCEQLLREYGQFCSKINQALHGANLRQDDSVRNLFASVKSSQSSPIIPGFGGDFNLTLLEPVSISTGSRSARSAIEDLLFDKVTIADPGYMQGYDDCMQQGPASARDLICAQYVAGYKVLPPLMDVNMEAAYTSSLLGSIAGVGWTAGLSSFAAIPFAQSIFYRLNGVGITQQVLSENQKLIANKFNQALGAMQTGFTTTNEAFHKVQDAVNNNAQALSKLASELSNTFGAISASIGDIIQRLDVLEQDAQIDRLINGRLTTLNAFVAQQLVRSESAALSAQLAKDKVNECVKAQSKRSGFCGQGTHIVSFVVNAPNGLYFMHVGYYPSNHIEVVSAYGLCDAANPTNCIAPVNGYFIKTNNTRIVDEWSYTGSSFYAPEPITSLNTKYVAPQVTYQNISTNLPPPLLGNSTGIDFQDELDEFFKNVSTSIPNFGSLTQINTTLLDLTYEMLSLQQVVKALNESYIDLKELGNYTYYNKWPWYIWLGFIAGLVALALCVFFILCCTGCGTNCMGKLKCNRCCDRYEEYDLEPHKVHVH

| Binder | Antivirus vs Pseudovirus IC50 (pM) | IC50, neutralization of MERS CoV by the soluble antibody |
| --- | --- | --- |
| B1 | 12 pM |  |
| B2 |  | 1.2 nM |
